Results reported in publication doi:10.1101/2024.10.30.620894 (bioRxiv, 2024).

Legend:
[1] = target: VLDLR(28-797)Δ(751-779)-C-tag (VLDLR ectodomain, VLDLR-ed) (human) (UniProt P98155); experiment: ELISA
[2] = target: the molecule itself; experiment: SEC

Kd [1]	Molecule	stoichiometry N [2]
1.2 nM	receptor-associated protein (RAP) (from UniProt P30533 36-357) (natural protein)	
80 nM	wild-type clusterin (WT-Clu) (natural protein, human, N-glycans (six in the whole protein) | N-glycans (six in the whole protein)) chain 1: DQTVSDNELQEMSNQGSKYVNKEIQNAVNGVKQIKTLIEKTNEERKTLLSNLEEAKKKKEDALNETRESETKLKELPGVCNETMMALWEECKPCLKQTCMKFYARVCRSGSGLVGRQLEEFLNQSSPFYFWMNGDRIDSLLENDRQQTHMLDVMQDHFSRASSIIDELFQDRFFTREPQDTYHYLPFSLPHRRPHFFFPKSRIVR chain 2: SLMPFSPYEPLNFHAMFQPFLEMIHEAQQAMDIHFHSPAFQHPPTEFIREGDDDRTVCREIRHNSTGCLRMKDQCDKCREILSVDCSTNNPSQAKLRRELDESLQVAERLTRKYNELLKSYQWKMLNTSSLLEQLNEQFNWVSRLANLTQGEDQYYLRVTTVASHTSDSDVPSGVTEVVVKLFDSDPITVTVPVEVSRKNPKFMETVAEKALQEYRKKHREE	2
